In PMC3760615 (The Journal of Cell Biology, 2013):

Biological target: T1, recombinant His-tagged drebrin ADFH-CC construct (human, UniProt Q16643 1-256)
T1 sequence: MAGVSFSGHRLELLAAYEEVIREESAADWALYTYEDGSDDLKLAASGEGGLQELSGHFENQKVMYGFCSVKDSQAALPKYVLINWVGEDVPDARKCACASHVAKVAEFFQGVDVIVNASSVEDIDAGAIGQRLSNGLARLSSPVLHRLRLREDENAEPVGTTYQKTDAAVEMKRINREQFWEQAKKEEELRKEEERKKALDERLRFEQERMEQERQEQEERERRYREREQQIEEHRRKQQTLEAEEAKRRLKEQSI
Assay: co-sedimentation

- binding result: binds
B1: recombinant His-tagged drebrin BB (blue box) domain (domain or fragment)
chain: VLAAPVEPATADATEIHDAADTIETDTATADTTVANNVPPAATSLIDLWPGNGEGASTLQGEPRAPTPPSGTEVTLAEVPLLDEVAPEPLLPAGEGCATLLNFDELPEPPATFCDPEEVEGESLAAPQTPTLPSALEELEQEQEPEPHLLTNGETTQKEGTQASEGYFSQSQEEEFAQSEELCAKAPPPVFYNKPPEIDITCWDADPVPEEEEGFEGGD
